A short description of this series: soluble on expression in E. coli; label from the status in PepcDB or PDB records.
On to “MRKERRMIKLAIFDMDGTLTDEPSSWEYVHRRLHTDNHMNFRLYRNGFISYEEFFRSDVLAWLRMHPRLKKDDIAGILRDIKLRDGSSEVVNGLKERGLITAVVSGGISWLCDILNEYMQIDYNLSNVIATDEGGFVQPWGYIRVIPERKNIAVKSLQSMLHISKDETISIGDSMENGMIHINSSKAYIIGGKGRHGEIPLGNNIRNLLSYI”, for which the “soluble on expression in E. coli” value is “not soluble”.
On to “MRKKISIIGAGFVGSTTAHWLAAKELGDIVLLDIVEGVPQGKALDLYEASPIEGFDVRVTGTNNYADTANSDVIVVTSGAPRKPGMSREDLIKVNADITRACISQAAPLSPNAVIIMVNNPLDAMTYLAAEVSGFPKERVIGQAGVLDAARYRTFIAMEAGVSVKDVQAMLMGGHGDEMVPLPRFSTISGIPVSEFIAPDRLAQIVERTRKGGGEIVNLLKTGSAYYAPAAATAQMVEAVLKDKKRVMPVAAYLTGQYGLNDIYFGVPVILGAGGVEKILELPLNEEEMALLNASAKAVRATLDTLKSL”, for which the “soluble on expression in E. coli” value is recorded as “soluble”.
“MRKNISENNGKRPGSVKSRFLVSAFAVFLVAYSQTGRSSEEVLEQYKSLFAQQQKEFEKQRQIIIEQGKEIEKLKSRLDSLITTQPTDRSPASNVAGKDGQRPPQVSSPSTPKTVVAGPVGKKNDQVQTRTVPGNLPAGPVGQAPPKQDEKPRPPEMPRLSDAVGGVLTRKGKIVVEPALEYAFTDSNRIFLDAFTFLPAIAIGLIDVRQVDQHSLMASIGARYGVTDRLEVEARVPYRARFDEQRSRPVSIGAGIDETFNASGNGLGDIEFAARYQLNSGAGGWPILVGNMRATVPTGKGPFDIKYAQAQGVPGAVFPTEVPTGSGFFSFEPSVTALYATDPAVFFANLAYNYNMGTTEKALDGSGDKFKVDPGYAVGMTFGMGFGINERSSFNIGYGHRHIFNTKINNRTLKGSQLDIGQLLLGYAFKYSQQTTLNFSIAIGTTDDAQDVRLSFRVPMTFLEHHHHHH”: the “soluble on expression in E. coli” value is “soluble”.
In the case of “MRKPTYHQINPLIRLKETELLSEQQFQQLLEAETVEDVRNMLKSTVYQPYLTETFEEKFDYHSSEALGSLYRWLYEMAPEPAVVTLYTMRFTFHNLKILTKAERTGKDFDYLYLEDGRYSLNTVKSAIHTKNSSELEPALLEVIRDVFAYLEEGGLPQAIDILYDRAFLQQQRKLADELGYEELTKEVIAFIDLTNLSTMARGIVQHQNSNFLSTVLSSAGSITKKELLTYAEKSLVEFTAFVRTTNYGQLLEKIINKETNELNLLAFEKLKDDYLTSMYENGRTVAFGPLPLLAFLNAKEVEWKNLRLILVGKHSGFSNEKIRERMRKVNGV”, the “soluble on expression in E. coli” value was “not soluble”.
With “MRKRLLGDEHPDVAFSLNNLATVLAATNHPEEALSHRIEASNINDQIIRNIFAFSSESDRLSFLDKIRNNFDLFLSLVCNHLANSNRAKLAALDFVLKRKALTASALAAQNQAFYNGRYPQLQEKFSQLRDLSNQIIHLTFAVPETDDLATYQDNIRQLQSRHNHLQKQLAAQVPEIQLSEQVFDCQAIAAALPHNSILVEFVRFDVFDFQAVSANGETQWHPARYLAFILTAGKPNAVQMIDLGVADTIDRLIQAFRLQASDYTLPTLAWGKAPKLRVKSYNPTPAIELSQALLEPIRGLVKDCRHLIIAPDGNLNLVPFQVLPIDATSSRLLMDEYTISYLGVGREILRSKFQPSTGSISAPLIIADPDFDLSGTGDWENNTRLDVRSLQLSNQFTETGLLRAPGTRFLGESVAKKLPDAKLYLGAEALETRLTNSNCPKIMLIATHGLFQSDSQAQPVTKRRNLLSMERQRTTKVENPMLRSGLALAGANTWLAGGTLPLAAGKGFVFAQDIANLDLWANELTVLSACDTARGDIKIGEGVFGLRRAFAVAGTKTLVMSLWSVPDKVTALLMERFFDNLQSGMSRSEALDSAQNYIRNITVKELRASALGLEVLKELLAVKELSANSRIDCQEDDTPLEHPFYWGAWICQGNTNPLVNLEHHHHHH”, the “soluble on expression in E. coli” value was “not soluble”.
For the sequence “MRKYTFKTQRPKIVVIGGGTGLPVVLNGLRKQAVDITAVVTVADDGGSSGIIRNYVNVVPPGDIRNVMVALSSWPDLYKDIFQYRFQGDDQFFAGHAIGNLIIAALTEMKSGVFDAVQELSNMMQVDGHVYPAANEALTLHGKFSDGTELVGEAEITAAHKSLERVWVTDKNGKEPQAVQPVIDAIMAADQIVLGPGSLFTSILPNLTIGNIGRAVCESDAEVVYICNIMTQKGETDNFSDADHVRVLNRHLGQNFINTVLVNTEKVPEDYMDFHKFNEVSKQVSHDFRGLREQNCRVISSNFLKLRDNGAFHDGDQVVAELMNLVGHSDVFRLEHHHHHH”, the “soluble on expression in E. coli” value is on record as “soluble”.

(Values after the DeepSol protein solubility set.)
